From publication PMC2645338 come the findings set out here.

In assay [1] the target is mitochondrial 28S small ribosomal subunit (bovine). Description: co-sedimentation.
For assay [2] the target is unchanged. Description: dot blot of epitope exposure.
Assay [3] shares this target. Description: Microcon-100 centrifugation with dot blot immunodetection.
Assay [4] has as its target C-terminal domain of IF3mt with the linker, His6-tagged (human). The assay is described as follows: SPR. (In general: In SPR one partner is held on a chip, and binding of the other changes the refractive index at the surface.)

“mitochondrial initiation factor 3, mature full-length form, His-tagged (from UniProt Q9H2K0 32-278) (natural protein)” had a Kd in assay [1] of 0.035 µM. This substance also returned a quenching of the antigenic response on binding in assay [2] of 80%.

In assay [3], “untagged C-domain of IF3mt with the linker (His-tag removed with TEV protease) (domain or fragment)” showed a Kd of 0.07 µM.

For “C-terminal domain of IF3mt with the linker, His6-tagged (domain or fragment)”, the Kd in assay [3] came to 0.06 µM.

Regarding “untagged IF3mt (mature full-length form, His-tag removed with TEV protease) (from UniProt Q9H2K0 32-278) (natural protein)”, the Kd in assay [3] is 0.04 µM.

Take “untagged N-domain of IF3mt with the linker (His-tag removed with TEV protease) (domain or fragment)”: the Kd in assay [3] was found to be 0.232 µM.

Take “mitochondrial 28S small ribosomal subunit (complex)”: in assay [4], the Kd turned out to be 0.044 µM, the koff turned out to be 0.0092 s⁻¹ and the kon came to 210000 M⁻¹ s⁻¹.

In the case of “N-terminal domain of IF3mt with the linker, His6-tagged (domain or fragment)”, the figures for the Kd in assay [1] and in assay [3] were 0.277 µM and 0.24 µM, respectively.

As to “C-terminal domain of IF3mt without the linker, His6-tagged (domain or fragment)”, the Kd in assay [3] stood at 0.095 µM.

Turning to “N-terminal domain of IF3mt without the linker, His6-tagged (domain or fragment)”, the Kd in assay [3] was 0.39 µM.

A word on the Kd: it is the concentration at which binding is half-saturated. The low end stands for a tighter complex, the high end for a looser complex. One may read the koff as the first-order rate constant of dissociation. A high value points to a short-lived complex. What is called kon is a measure of how fast the partners come together. A high value points to faster complex formation.
